Measured values published in publication doi:10.64898/2025.12.10.693404.

B1: (TG)4 (ssDNA)
DNA: TGTGTGTG
B2: (AC)4 (ssDNA)
DNA: ACACACAC

How the values were obtained:
His6-SUMO-TDP-43 [1] = biological target: T1, His6-SUMO-TDP-43 (UniProt Q13148 1-414); experiment: fluorescence anisotropy
His6-SUMO-TDP-43 [2] = biological target: T1, His6-SUMO-TDP-43; experiment: fluorescence anisotropy; remark: listed apart in the source

T1 sequence (Q13148 whole entry): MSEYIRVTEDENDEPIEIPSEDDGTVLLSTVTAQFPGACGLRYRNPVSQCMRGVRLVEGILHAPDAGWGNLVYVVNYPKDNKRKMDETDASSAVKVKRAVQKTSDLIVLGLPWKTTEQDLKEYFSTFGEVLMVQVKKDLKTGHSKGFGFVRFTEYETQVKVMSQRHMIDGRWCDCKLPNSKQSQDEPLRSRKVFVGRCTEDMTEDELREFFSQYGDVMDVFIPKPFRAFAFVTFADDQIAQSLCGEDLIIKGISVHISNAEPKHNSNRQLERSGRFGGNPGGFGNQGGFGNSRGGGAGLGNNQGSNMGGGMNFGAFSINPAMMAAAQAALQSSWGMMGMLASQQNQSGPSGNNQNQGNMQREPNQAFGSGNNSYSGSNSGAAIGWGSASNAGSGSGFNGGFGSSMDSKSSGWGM

Row | Binder | Kd (His6-SUMO-TDP-43 [1]) [nM] | binding result (His6-SUMO-TDP-43 [2])
1 | B1 | ~1800 | –
2 | B2 | – | no binding
